# From the DeepSol protein solubility set
# Assay: soluble on expression in E. coli; label from the status in PepcDB or PDB records
row,Sequence,soluble on expression in E. coli
1,MEEKKPVNLVLPEVENAIFIEGYPGVGLVGHIAANFLAKELDMDLIGYVDSLFIPPMSLILEGRPTPPLRFYGKNNIIIAIADIFLPPTLVNEIAKEIVNYLKKVNAEKVISLAGMGIGFFKDTFEVWGIGGSEEENKELESLGVKILKYGSITGMSGKLLWEASRAGLKSYVLLGETFGDRPDPRAAANVVEVLNKMLGLNVSVEPLLKEAEMIEEQLRRMHEQMEEARRKMERQYETMYL,not soluble
2,MRFFVSGMPGVGKTTLAKRIADEVRREGFKVGGIITEEIREGGKRTGFRVIALDTGEIGRLAYVGYGYPRLGKYVIDVEGFERVAIPALSRALRGADLIVIDEIGPMEFKSNEFLKALGLVLKSEKHLLATVHRRLVDRYRPLGEYYWLTPENRNAVFSEILGRIKGLLKEKLEHHHHHH,soluble
3,TLAQPVTIREIAEPPKIRLPRHLRQTYIRKVGEQLNLVVPFQGKPRPQVVWTKGGAPLDTSRVHVRTSDFDTVFFVRQAARSDSGEYELSVQIENMKDTATIRIRVVEKAG,soluble
4,MVKKMCQDYLSSSGLCSQETLEINNDKVAESLGITEFLRKKEIHPDNLGPKHLSRDMDGEQLEGASSEKREREAAEEGLASVKRPRREALSNDTTESLAANSRGREKPRPLHALAAGTIVSQEEDIVTVTDAEGRACGWAR,soluble
5,VPRIRKLVAALHRRGPHRVLRGDLAFAGLPGVVYTPEAGLHLPGVAFGHDWLTGTSRYSGLLEHLASWGIVAAAPDSERGLAPSVLNLAFDLGVALDIVAGVRLGPGKISVHPAKLGLVGHGFGGSAAVFAAAGLTGTHVKSVAAIFPTVTNPAAEQPAATLDVPGLILTAPGDPKTLTSNALGLSRAWDKATLRIVSKARAGGLVEGRRLTKVLGLPGPHRRTQRSVRALLTGYLLYTLGGDKTYRRFADPDLQLPKTDPIDPEAPPITPGEKIVTLLK,not soluble
6,MNLEKLEVSHDADSLCVVIEISKHSNIKYELDKESGALMVDRVLYGAQNYPANYGFVPNTLGSDGDPVDALVLSDVAFQAGSVVKARLVGVLNMEDESGMDEKLIALPIDKIDPTHSYVKDIDDLSKHTLDKIKHFFETYKDLEPNKWVKVKGFENKESAIKVLEKAIKAYQG,soluble
7,MGHHHHHHSHMDELVHDLASALEQTSEQNKLGELWEEMALSPRQQRRQLRKRRGRKRRSDFTHLAEHTCCYSEASESSLDEATKDCREVAPVTNFSDSDDTMVAKRHPALNAIVKSKQHSWHESDSFTENAPCRPLRRRRKVKRVTSEVAASLQQKLKVSDWSYERGCRFKSAKKQRLSRWKENTPWTSSGHGLCESAENRTFLSKTGRKERMECETDEQKQGSDENMSEW,not soluble
8,MIGGSLDAFIGSVHRMAAALDGTIELVCGAFSSNAARSIQTGEALHLPKERIYASYEEMIVQEAQLPADVRMQFVSIVTPNHLHAQPALLALKHGFHVLCEKPLAFSVAEAEQLGIQVKETGLLFGLTHTYTAYPMVKEARDLIAKGKLGTIRKIIVEYPQGWLSAPIESDGQKQAGWRTDPAQAGLSCCVGDIGTHAENIAEYITGLKITELSADVSSVVAGRKLDDDANILLRFDNGAKGVLIASQIANGEENELKIRVYGEHAGLEWLQSEPNTLIVKQNDQPTQLRRAGANHSYLSEHARLHCRIPAGHPEGYIEAMANIYRNFSKAVHSFEDQITHNPLLDYPTIEDGIRGMKFIETVIISGKENATWKQLLEHHHHHH,soluble
9,MTETKEERVHQVFEKIYKRYDVMNSVISFQRHKAWRKDTMKRMNVQEGQSALDVCCGTADWAIALGKAVGPTGHVEGLDFSENMLSIGKKKIADERLDHVFLRHGNAMELPYADDTFDFVTIGFGLRNVPDYMQVLREMARVTKPGGKVVCLETSQPTIPVFKQLYFFYFRHVMPLFGKMFAKSYDEYSWLQESTLSFPGRDRLAQMFKEVGLTDVQVKPYSGGAAAMHLGVKESYDEESRNVTCLEHHHHHH,not soluble
10,MKKNLLAIALGSVIALTAAPYSLAANDSTIQSSADYSQLVTKRQVVDQLLNDAVEAFKSPARISHAGFTAKMPSNMEIVTDRLLEAYQLEPYRTDLLISAANAQIYNKNVDRAIELFEQALAVAPDDVDLHAYLAVWQRFKGNQAESDQHMATLAKLNAGKAADINRIFDTVDRVLATPLKEKADKGKLDNKGAIVTLGYALNPDGSMHQILVERLETTLAMAKANPDAIIILTGGVPKNHKTEGKLMADWLIGKGVSKDRIIEENYATSTVGNALFSSYALARHNIKHATIISSASHVRRGQTLFEIASWQTGPQGITFDTVSYPDKPLKDLAKASESELLGIYRDALRTYGMWSYRSYPLESRLEHHHHHH,soluble
11,MTDRYIAFANSPVGRRLVGAVGLPSPLRLERWQAGRVRPVDGPLVIGGSGALAEAVLPFAGKLTDAVFAAVDGQFELPRWTAEHSPRAKAVLFDASGLTRFEQLVALRDFFQPVLKGLDKCPKVVVLGRPPESLKDPVTASVQRSLEGFTRSLGKEIRRGGNVQLLYVGKGAEDQLEGALRFFLSPKSAYVSGQVIRLAANSAQVHDWSKPLAGQRALVTGAARGIGAAIAETLARDGAEVVLLDVPPAREALEGLAARLGGRAVALDICAADAGQQLVEALPEGVDIVVHNAGITRDKTLAKMSSDFWNSVINVNLNAPQVLTQALLDGGKLHDNGRVVLLASISGIAGNLGQSNYAVSKAGLIGLAQAWAPALGKRGITINAVAPGFIETQMTAAIPLTIREAGRRMNSMSQGGLPQDVAETVAWFAQPSSGAVSGQVL,not soluble
12,MSLSENPGATAQILSYNHVLSQLNREKTDVTEAKSLLNTAETSLSSMSTSMNRVNALVLQAINGTSDKDNMSQSAEEIKGLLDVLISVANSEDDGRYVFSGSSTSVKPFTTDKTTGEIIYNGTTENKKFRVTDTLEVEVFHDGSAMTDVFNNIQKIVDAMKSGDKDALSALQETNSKNIEIITNSMTNIGGQKNGVTAYDNVLSSKIVDFSERKSNVEEVNMPEAVSNLNKTSIAYQAALQSSVMVQKLSILNYMEGHHHHHH,soluble
13,FKAHCRRSVEGDTMLSLKAVSPTRLLKNKFYQDVFAAEQRGASVEELRELLGRGRAKQGIFEGDLHEGELEIGQAVSQISHAETVAEIMVDLVDGYKRSLAGMPTEI,not soluble
14,GSLPEVLQAPVGSSILVQCHYRLQDVKAQKVWCRFLPEGCQPLVSSAVDRRAPAGRRTFLTDLGGGLLQVEMVTLQEEDAGEYGCMVDGARGPQILHRVSLNILPP,soluble
15,MAISSVGFACRSFSPVRTLQSHCLWKIRFNTVAAAIETMDESDGFATDSDRQDKVSDEPRDREWKQLNSKDLGLSSSMIAKSTRKVLNGLKSKGHDVYLVGGCVRDLILKRTPKDFDILTSAELREVSSFSTSAQNSSRNTRTECKESSGSDGDEDCIRLNNCLQRDFTINGLMFDPYAKVVYDYLGGMEDIRKAKVRTVIHAGTSFHQDCARILRAIRIAARLGFRMSKETAHFIKNLSLLVQRLDKGRILMEMNYMLAYGSAEASLRLLWKFGILEILLPIQAAYLARSGFRRRDKRTNMLLSLFANLDKLLAPDRPCHSSLWIAILAFHKALADKPRSPIVVAAFSLAVHNCGDILEAVEITKKITRPHDKSFFELVEPEENLDFQTLLDEVMDLDASIEDALNQMTDAYFISKAMSAYPQAPYSDLVFIPLQLYLRAGRIFDCVKNEETRIGFEAKQGSKIEYGSLNSGYFPEIRHVFARVVFDTVFPLNLSQEL,soluble
16,MKRIGIDVGGTNTDAVLIDGDTIVASIKVPTTQDVLSGVKAALAHVAGHVGAADRPIDAVMIGTTHFTNAVVERARLERVAALRIALPTGSSLPPMCDWPKDLHDAVDPLIFMVHGGHEYDGSPLVPMIPDEIREAAMKIRDAGITSIAISATFSPLTTECEVRAAEIVRSVIPDARITLSHTLGRIGLLERENVALLNAALQTLGKTTVQAFSDALREAGVKAPFYLTQNDGTVSLADVAAANPVHSFASGPTNSMRGAAFLTGLSDAMVVDVGGTTSDIGCLVGGFPREANNIVHIGGVRTLFRMPDLLPIALGGGTIVDPETGKIGPRSVGYRILTEARVFGGETLTTSDIAVAAGLIEIGDRDRVKDLDSTFVQATLQRIRNMVADSFDQMKTSAEDVPLVAVGGGAFLIPETVPGASDVLRVENAGVANALGAAMAQVSGEVDQVFSGLSRDEALAKAETEAQNAAVASGAERTSLKTLEVEDIPIAYLPGGARRVRVRVIGDIAFHLEHHHHHH,not soluble
17,MLEEPFFPYQSLASDLLAFLPEDSTDGSHDLSHIHRVWMNVRRLQDKEGGDLEALLAATLLHDCVAVEKNSPLRSQASTLSANKAASILQRMGWPAPRIELVAHAVQAHSFSAGVEPLTLEARILQDSDRLDAIGMIGVARCFYIAGRMGSALYDITNPTAIGRPYQDKRFTIEHFHTKLLSLASGFQTVEGARLAAVRHARLKDFLDGFMEEIGAPDLEHHHHHH,soluble
18,MSLAPRQVNCILRTNEHTQEFFGGSVKSYDSNQLASNSPIEDSRSEASCVHTSGLLLGIFDGHGGPACSQVISKRLMRYIAASLVPPDDLRQHVLNGAQSFSFLSCHNDKARCGYEIKELYEKSFHQFANELTNTTLAGFQMHQTLENAFIRLDQDLSREAIEMPSLRTMSVAMSGAVALVAHIDGPHLHVASVGDCSAVLGTVTDTGQWMAKKLTNEHNSDNVGEVRRLLSEHPATERDTVIRGERLLGQLAPLRAMGDFRYKWSREQLEQLVVPQFGEQVIAPYYLTPPYLSACPEITHHILTPRDKFLIIASDGLWDTMSAMQTVHLVGEHMYGKAFLQPLTLPKQDITLGEISQMLTTRKAGLQKKPLDRNAATHLIRNALGGTEYGVEHSKLSHMLSLPQDIVRLFRDDITITVVYFDSEYLEGHHHHHH,not soluble
19,MKITLSKRIGLLAFLLPCALALSTTVHAETNKLVIESGDSAQSRQHAAMEKEQWNDTRNLRQKVNKRTEKEWDKADAAFDNRDKCEQSANINAYWEPNTLRCLDRRTGRVITPLEHHHHHH,not soluble
20,SLKNSESHGEADGGLRERKKRETKKRLTEKGIALFLERGFDNTTLDEIASAAGISRRTFFYYFKSKDEILLSLQSGIGEMLADAVRRAPSSSTPIEVVRDAAIGVCKVIPTNDMIEMDRLMRTSPSVQARKQVSYVQQEGEIYEALSERWPEPERSTALRVVAMLSVGAMRIAGDIFSQEKGVRPMVDLLEEAFGSLIQEVRSGDPRV,soluble
21,MVLLVSQLYGCGDPLPEQRKLSHFDRIKAAGELRVLVRDKRFASSRPASGTAGFERDLLHGFASHLGVRLRFIPANARPVTERLLRGEADFAAMPSRSVAGEVLPTGGPPPFAGVTPVGGWVGALAGGLKGMARNSAQKFNPRMAFAEYSPRRVHTLKWAFPENAGVRGPRALAWMFAEPEGDHLAMMAEHFLRDMCERKGLDPLLDRHFGHNEGADPALDRNLRESYGRQLGKYRRTFVEAAARHGLDWRLLAAVAFQESRWDGHAVSAEGVRGMMMLTGATARELGVDRNNPGQSIHGGARYLKAVWSRLPEEIAEPDRTWFALSAYNLGPGRVETARRLAKKLGRDPNKWAEVKKTLPLVGAGRSGGRFRHPSARGKLTVQYVNRVRHYYDLLVRLEHHHHHH,soluble
22,MSFLNNDFGSPPATSSPPTTMPKLPTIQDMLNNIGASTVNLMQPNPYLMQNQIPLPVPNLPLNPFLHLNPAISQEIIQQFIAMSFNTPNVLASIANMGDDEGPSCNPKMRRGDLLKSVSMDSTEDPPSITLDNNGDMIVPNNDKEGWCRNKKYIEQTENGYMCTVCRKVYGRYNSVSYHVTIYHRNPPIKCNVPNCQFTTREARYIHFHKNYRHGIPLPESIDQGSRKCPHCRHVSKSPAMLEKHIRRHQIKDGLSNINEAIRERTSTICDEAMEIEPAETEVDPIETKPRSCTL,not soluble
